The values below come from the Immune Epitope Database (IEDB).

The target of one assay is HLA-B*44:03. Put plainly: IEDB peptide-MHC binding, purified MHC/competitive/radioactivity; filed as Kd, often an IC50 or EC50 that approximates it; ≥ and ≤ were set here for values at or beyond the usual limits of such assays.
For a further assay, the target named is HLA-B*45:01. The assay is described as above.
Another assay addresses HLA-B*44:02. Described as above.
A further assay concerns the target HLA-B*40:02. The description is as above.
Another assay concerns the target HLA-B*18:01. Described as above.
Assay [1] has as its target HLA-B*40:01. Described as above.
The target in a further assay is HLA-A*24:03. The experiment in a line: IEDB peptide-MHC binding, purified MHC/direct/fluorescence; filed as Kd, often an IC50 or EC50 that approximates it; ≥ and ≤ were set here for values at or beyond the usual limits of such assays.
The next assay concerns the target HLA-B*51:01. Put plainly: IEDB peptide-MHC binding, purified MHC/competitive/fluorescence; filed as Kd, often an IC50 or EC50 that approximates it; ≥ and ≤ were set here for values at or beyond the usual limits of such assays. The note with it: source organism: Salmonella enterica subsp. enterica serovar Typhi.
The target of assay [2] is HLA-B*15:01. Described as above.
The target of assay [3] is HLA-A*02:01. The description is as above. The conditions noted are these: source organism: Yersinia pestis Nepal516.
The target of the next assay is HLA-B*39:01. Described as above. The note with it: source organism: Yersinia pestis Nepal516.
A further assay addresses HLA-A*01:01. Put plainly: IEDB peptide-MHC binding, purified MHC/direct/fluorescence; filed as Kd, often an IC50 or EC50 that approximates it; ≥ and ≤ were set here for values at or beyond the usual limits of such assays. The note with it: source organism: Corynebacterium glutamicum.
Assay [4] addresses HLA-B*15:01. The description is as above. The conditions noted are these: source organism: Corynebacterium glutamicum.
Another assay deals with HLA-B*27:05. The assay is described as above. The note with it: source organism: Corynebacterium glutamicum.
A further assay has as its target HLA-A*31:01. The description is as above. The conditions noted are these: source organism: Corynebacterium glutamicum.
Another assay concerns the target HLA-A*03:01. The description is as above. The conditions noted are these: source organism: Corynebacterium glutamicum.
For another assay, the target named is HLA-A*26:01. Described as above. The note with it: source organism: Corynebacterium glutamicum.
The target of the next assay is HLA-B*07:02. The assay is described as above. The note with it: source organism: Corynebacterium glutamicum.
The target in a further assay is HLA-B*58:01. Described as above. The conditions noted are these: source organism: Corynebacterium glutamicum.
A further assay has as its target HLA-A*11:01. The assay is described as above. The note with it: source organism: Corynebacterium glutamicum.
Assay [5] addresses HLA-A*02:01. Described as above. The note with it: source organism: Corynebacterium glutamicum.
Assay [6] addresses HLA-B*40:01. The assay is described as above. The conditions noted are these: source organism: Corynebacterium glutamicum.
A further assay concerns the target HLA-B*08:01. The description is as above. The conditions noted are these: source organism: Corynebacterium glutamicum.
For another assay, the target named is HLA-A*69:01. The assay is described as above. The note with it: source organism: Corynebacterium glutamicum.
[7] abbreviates: source organism: Mammarenavirus brazilense.
Setting [8] is: source organism: Mammarenavirus lassaense.
The mark [9] stands for this setting: source organism: SARS coronavirus Tor2.
Where [10] appears, read: source organism: Mammarenavirus choriomeningitidis.
The mark [11] stands for this setting: source organism: Mammarenavirus machupoense.

Take IDPTLTTWI: the Kd with HLA-B*44:03 (setting [7]) is 1370 nM; in the assay with HLA-B*45:01 (setting [7]), 7230 nM; with HLA-B*44:02 (setting [7]), 3580 nM; with HLA-B*40:02 (setting [7]), not below 10000 nM; with HLA-B*18:01 (setting [7]), not below 42000 nM; with HLA-B*40:01 [1] (setting [7]), not below 53300 nM.

Take AEFKSRFFVW: the Kd worked out at 15.6 nM with HLA-B*44:03 (setting [8]); 51.4 nM with HLA-B*45:01 (setting [8]); 13.6 nM with HLA-B*44:02 (setting [8]); 29.4 nM in the assay with HLA-B*40:02 (setting [8]); 271 nM in the assay with HLA-B*18:01 (setting [8]); 2330 nM with HLA-B*40:01 [1] (setting [8]).

For SEETGTLIV, the Kd is not below 27600 nM with HLA-B*44:03 (setting [9]); 121 nM in the assay with HLA-B*45:01 (setting [9]); not below 50100 nM with HLA-B*44:02 (setting [9]); 7260 nM in the assay with HLA-B*40:02 (setting [9]); not below 50500 nM with HLA-B*18:01 (setting [9]); 1930 nM with HLA-B*40:01 [1] (setting [9]).

In the case of YECLYRNRDV, the dissociation constant (Kd) in the assay with HLA-B*44:03 (setting [9]) was 10300 nM; with HLA-B*45:01 (setting [9]), 2510 nM; with HLA-B*44:02 (setting [9]), 5550 nM; in the assay with HLA-B*40:02 (setting [9]) it was 1720 nM; with HLA-B*18:01 (setting [9]) it was not below 70500 nM; with HLA-B*40:01 [1] (setting [9]), 2410 nM.

TVQKDGMYF displayed a Kd with HLA-A*24:03 (source organism: Giardia lamblia ATCC 50803) of 460 nM.

For GEHSLPRCW, the Kd with HLA-B*44:03 (setting [7]) was 80.2 nM; with HLA-B*45:01 (setting [7]), 8740 nM; with HLA-B*44:02 (setting [7]), 24.2 nM; with HLA-B*40:02 (setting [7]) it was 2140 nM; with HLA-B*18:01 (setting [7]) it was not below 77500 nM; with HLA-B*40:01 [1] (setting [7]), not below 42800 nM.

Consider IETALRTLI, for which the Kd in the assay with HLA-B*44:03 (setting [10]) was 2200 nM; with HLA-B*45:01 (setting [10]), not below 54000 nM; with HLA-B*44:02 (setting [10]) it was 2780 nM; with HLA-B*40:02 (setting [10]), 154 nM; with HLA-B*18:01 (setting [10]), 3450 nM; with HLA-B*40:01 [1] (setting [10]), 1860 nM.

As for TEKSNVVRG, the dissociation constant (Kd) with HLA-B*44:03 (setting [9]) was not below 78200 nM; with HLA-B*45:01 (setting [9]), not below 31800 nM; with HLA-B*44:02 (setting [9]), 11900 nM; in the assay with HLA-B*40:02 (setting [9]), not below 50300 nM; with HLA-B*18:01 (setting [9]) it was not below 77500 nM; with HLA-B*40:01 [1] (setting [9]), not below 42700 nM.

For LEWLAEVVKL, the Kd is 7240 nM with HLA-B*44:03 (setting [9]); 9160 nM with HLA-B*45:01 (setting [9]); 9310 nM with HLA-B*44:02 (setting [9]); not below 20100 nM with HLA-B*40:02 (setting [9]); 1240 nM in the assay with HLA-B*18:01 (setting [9]); 104 nM in the assay with HLA-B*40:01 [1] (setting [9]).

In the assay with HLA-B*51:01, NPLWPFETV came in with a Kd of 229 nM.

Turning to KENDSKEGFF, the Kd was 30 nM in the assay with HLA-B*44:03 (setting [9]); 24.4 nM with HLA-B*45:01 (setting [9]); 39.8 nM with HLA-B*44:02 (setting [9]); 366 nM in the assay with HLA-B*40:02 (setting [9]); 7490 nM with HLA-B*18:01 (setting [9]); 2690 nM in the assay with HLA-B*40:01 [1] (setting [9]).

Consider AEMDGIQYG, for which the Kd with HLA-B*44:03 (setting [9]) is 13.8 nM; with HLA-B*45:01 (setting [9]), 47.6 nM; with HLA-B*44:02 (setting [9]), 11.4 nM; with HLA-B*40:02 (setting [9]), 1310 nM; with HLA-B*18:01 (setting [9]), not below 77500 nM; with HLA-B*40:01 [1] (setting [9]), 2020 nM.

Take EELITDTEFL: the Kd with HLA-B*44:03 (setting [8]) was 9100 nM; in the assay with HLA-B*45:01 (setting [8]), 12400 nM; with HLA-B*44:02 (setting [8]), 4740 nM; with HLA-B*40:02 (setting [8]), not below 24100 nM; in the assay with HLA-B*18:01 (setting [8]) it was 10900 nM; with HLA-B*40:01 [1] (setting [8]), 12700 nM.

Turning to AQRELFFTL, the Kd with HLA-B*15:01 [2] (source organism: Yersinia pestis Nepal516) amounted to 113 nM; with HLA-A*02:01 [3], 1300 nM; with HLA-B*39:01, 332 nM.

Consider VLPVPGASV, for which the Kd with HLA-A*01:01 was not below 20000 nM; with HLA-B*15:01 [4], 3810 nM; in the assay with HLA-B*27:05 it was not below 20000 nM; with HLA-A*31:01, not below 20000 nM; with HLA-A*24:03 (source organism: Corynebacterium glutamicum), not below 20000 nM; in the assay with HLA-A*03:01, not below 20000 nM. Moreover, the Kd in the assay with HLA-A*26:01 was not below 20000 nM; with HLA-B*07:02, 10300 nM; with HLA-B*58:01, not below 20000 nM; with HLA-A*11:01, not below 20000 nM; in the assay with HLA-A*02:01 [5] it was 63.7 nM; with HLA-B*40:01 [6], not below 20000 nM. Also, the Kd with HLA-B*08:01 and with HLA-A*69:01 was not below 20000 nM in each case.

As for LESAQPGLL, the Kd with HLA-B*44:03 (setting [7]) was 16800 nM; in the assay with HLA-B*45:01 (setting [7]) it was 13500 nM; in the assay with HLA-B*44:02 (setting [7]), 2950 nM; with HLA-B*40:02 (setting [7]), 431 nM; with HLA-B*18:01 (setting [7]), not below 10000 nM; with HLA-B*40:01 [1] (setting [7]), 147 nM.

For EEPVPLLPLS, the Kd was 6260 nM in the assay with HLA-B*44:03 (setting [11]); 1950 nM with HLA-B*45:01 (setting [11]); 15700 nM with HLA-B*44:02 (setting [11]); 7130 nM with HLA-B*40:02 (setting [11]); not below 52400 nM in the assay with HLA-B*18:01 (setting [11]); not below 32000 nM with HLA-B*40:01 [1] (setting [11]).

RIYHEFLSL: the Kd with HLA-B*15:01 [2] (source organism: Yersinia pestis Angola) worked out at 97.5 nM.

Consider SELVIGAVII, for which the Kd in the assay with HLA-B*44:03 (setting [9]) is 827 nM; with HLA-B*45:01 (setting [9]), 1900 nM; in the assay with HLA-B*44:02 (setting [9]) it was 1690 nM; with HLA-B*40:02 (setting [9]) it was 1180 nM; with HLA-B*18:01 (setting [9]), not below 47200 nM; with HLA-B*40:01 [1] (setting [9]), 684 nM.

Turning to TEQFLCYAL, the Kd with HLA-B*44:03 (setting [11]) worked out at 1500 nM; with HLA-B*45:01 (setting [11]), 26.6 nM; in the assay with HLA-B*44:02 (setting [11]), 143 nM; in the assay with HLA-B*40:02 (setting [11]), 8.88 nM; in the assay with HLA-B*18:01 (setting [11]), 21 nM; in the assay with HLA-B*40:01 [1] (setting [11]) it was 10600 nM.

For the sequence GEDIQLLKA, the dissociation constant Kd amounted to 2660 nM with HLA-B*44:03 (setting [9]); 2880 nM in the assay with HLA-B*45:01 (setting [9]); 13600 nM in the assay with HLA-B*44:02 (setting [9]); 2730 nM in the assay with HLA-B*40:02 (setting [9]); 1080 nM with HLA-B*18:01 (setting [9]); 7550 nM with HLA-B*40:01 [1] (setting [9]).

For the sequence RELLKSLSGL, the Kd with HLA-B*44:03 (setting [11]) was not below 23300 nM; with HLA-B*45:01 (setting [11]), not below 70000 nM; with HLA-B*44:02 (setting [11]) it was not below 22500 nM; with HLA-B*40:02 (setting [11]), 61.2 nM; in the assay with HLA-B*18:01 (setting [11]) it was not below 70400 nM; in the assay with HLA-B*40:01 [1] (setting [11]) it was 877 nM.

In the case of REVGDTSSDL, the Kd with HLA-B*44:03 (setting [8]) was not below 24800 nM; in the assay with HLA-B*45:01 (setting [8]), not below 70000 nM; in the assay with HLA-B*44:02 (setting [8]) it was not below 24500 nM; with HLA-B*40:02 (setting [8]), 1360 nM; with HLA-B*18:01 (setting [8]), not below 70400 nM; with HLA-B*40:01 [1] (setting [8]), 11500 nM.

For the sequence YEQYIKWPWY, the Kd in the assay with HLA-B*44:03 (setting [9]) is 119 nM; with HLA-B*45:01 (setting [9]), 518 nM; in the assay with HLA-B*44:02 (setting [9]), 41.6 nM; with HLA-B*40:02 (setting [9]) it was 7600 nM; in the assay with HLA-B*18:01 (setting [9]), 79.3 nM; with HLA-B*40:01 [1] (setting [9]), 1220 nM.

Consider KEGFFTYLCG, for which the Kd in the assay with HLA-B*44:03 (setting [9]) was 369 nM; with HLA-B*45:01 (setting [9]) it was 2890 nM; with HLA-B*44:02 (setting [9]) it was 2620 nM; in the assay with HLA-B*40:02 (setting [9]), 3750 nM; with HLA-B*18:01 (setting [9]), not below 70500 nM; in the assay with HLA-B*40:01 [1] (setting [9]) it was 1640 nM.

What is called Kd is the equilibrium constant for the complex coming apart.
